Values belong to the binder of their own block, whether it stands above or below them.
What was measured:
[1] = biological target: T1, NKp46 D1 domain-Ig (human, UniProt O76036 22-120); test: ELISA, D1-Ig plated at 0.1 ug/well, biotin anti-mouse / streptavidin-POD / TMB, OD 650nm
T1 construct: domain: D1; also called D1-Ig; Ig-D1; not shown: Ig part not described for this construct
Description: To identify the binding site of the anti-NKp46 mAbs, Ig-D1, Ig-D2 and Ig-NKp46 were plated at 0.1 µg/well. The plate was placed at 4° C. overnight. The next day blocking was performed (blocking buffer is PBSx1, 0.05%Tween-20, and 5% BSA) followed by addition of the mAbs at 0.1 µg/well and 10 µl/well of SN antibodies (both diluted in blocking buffer to a final volume of 100µl). The plate was placed at 4° C. overnight. The next day, biotin anti-mouse was added (diluted in blocking buffer), followed by streptavidin-POD (diluted in blocking buffer), and with TMB for detection of samples at OD650nm.

[2] = biological target: T2, Acro Biosystems Human NKp46 expressed in HEK293 cells (human, UniProt O76036 22-258); test: ELISA titration on coated Acro Biosystems human NKp46, anti-human kappa-HRP, absorbance at 450 nm; given as affinity
T2 construct: Bought antigen coated on the ELISA plate
Description: The binding of the humanized antibodies with mutated IgG4 to cells expressing NKp46 was examined. The experiments were performed as follows: [0300] 1. Coat tested in a matrix of 3 conc. vs. 3 buffers to find optimal signal. [0301] 2. Optimal signal conditions were used to coat the ELISA tray, using standard blocking and washing steps. [0302] 3. Primary antibody applied in range of concentrations with 10-dilutions (MAbs with humanized variable + mutated IgG4). [0303] 4. Secondary Ab used to detect binding was Anti-Hu Kappa with HRP (TMB sub strate). [0304] 5. Absorbance measured at 450 nm.
The antigen was Acro Biosystems Human NKp46 that was expressed in HEK293 cells.

T2 sequence (O76036 22-258 limits assumed): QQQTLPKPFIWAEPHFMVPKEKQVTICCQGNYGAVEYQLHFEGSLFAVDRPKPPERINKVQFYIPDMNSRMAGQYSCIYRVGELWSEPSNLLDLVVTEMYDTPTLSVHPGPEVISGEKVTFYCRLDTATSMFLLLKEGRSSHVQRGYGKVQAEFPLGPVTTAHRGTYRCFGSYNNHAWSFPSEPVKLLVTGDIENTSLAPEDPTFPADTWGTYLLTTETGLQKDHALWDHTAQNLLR
T1 sequence (O76036 22-120): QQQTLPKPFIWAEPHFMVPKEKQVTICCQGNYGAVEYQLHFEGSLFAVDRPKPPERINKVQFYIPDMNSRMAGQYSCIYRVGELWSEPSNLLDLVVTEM

binding result [1]: no binding
B1: anti-NKp46 monoclonal antibody clone K3 (antibody, V domains shown)
VH: EVQLQQSGPELVKPGTSVKISCKTSGYTFTEYSMHWVKQSHGKSLEWFGGISPNSGGTSYNQKFKGKATLTVDKSSSTAYMELRSLTSEDSAVYYCARRDFHSSFDYWGQGTTLTVSS
VL: DIVLTQSPATLSVTPGNSVSLSCRASQSISDYLHWFQQKSHESPRLLIKYASQSISGIPSRFSGSGSGSDFTLSINSVEPEDVGVYYCQNGHSFPLTFGPGTKLELK

Kd [2]: 0.0205 nM
B2: humanized P4 antibody having mutated IgG4 (antibody, V domains shown)
VH: EVQLQQSGAEVKKPGSSVKVSCKTSGYTFTEYSMHWVRQAPGKSLEWFGGISPNSGGTSYNQKFKGRATLTVDKSSSTAYMELSSLRSEDTAVYYCARRDFHSSFDYWGQGTTVTVSS
VL: DIVMTQSPATLSLSPGERATLSCRASQSISDYLHWFQQKPHESPRLLIKYASQSISGIPARFSGSGSGSDFTLTISSLEPEDFAVYYCQNGHSFPLTFGPGTKVDIK
notes: detected with an anti-human kappa secondary antibody

Kd [2]: 0.027 nM
B3: humanized K3 antibody having mutated IgG4 (antibody, V domains shown)
VH: B2 VH
VL: DIVLTQSPATLSLSPGERATLSCRASQSISDYLHWFQQKPHESPRLLIKYASQSISGIPARFSGSGSGSDFTLTISSLEPEDFAVYYCQNGHSFPLTFGPGTKVDIKR
notes: as for B2

From US20230183342A1 (YISSUM RESEARCH DEVELOPMENT COMPANY OF THE HEBREW …, published 2023)
